Results taken from the supplement of paper PMC9170038.

Tested on: MS2 coat protein
Assay: apparent KD of MS2 coat protein; designed switch direction (-1 OFF switch, 1 ON switch): -1; higher = weaker reporter binding
Method in brief: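 SNAP-549-labelled MS2 coat protein was titrated, doubling from 0.7 or 1.5 nM to 3 µM, over designed RNA switches transcribed on Illumina chips by stalled E. coli RNA polymerase. Runs were done without input, with 200 uM small-molecule ligand, or with an oligonucleotide input. Apparent KD is the per-design median over clusters of curve-fitted normalised fluorescence.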

[1] = Eterna round: R95, input ligand: microRNA oligo, concentration not stated
[2] = Eterna round: R95, input ligand: FMN 200 uM
[3] = Eterna round: R95, input ligand: none
[4] = input ligand: microRNA oligo, concentration not stated

Sequence | apparent KD of MS2 coat protein (input ligand: FMN 200 uM) | apparent KD of MS2 coat protein (input ligand: none) | apparent KD of MS2 coat protein [1] | apparent KD of MS2 coat protein [2] | apparent KD of MS2 coat protein [3] | apparent KD of MS2 coat protein [4]
AGCUGACAAGGAUAUACAUGAGGAUCACCCAUGUUGGUCAAGCGACGAUAGUCGCAAUGUAGAAGGUGUCAGCU [E3/8-C1] (Eterna round: R97, puzzle: Exclusion 3) | 1750 nM | 341 nM |  |  |  | 
UAUUAGCUAGGAUAUACAUGAGGAUCACCCAUGUCACGGGUCCACUCGUCCUAUGCGUGUAGAAGGAGCGACCC [JL Ceriza mod 2] (puzzle: Exclusion 3) |  |  | 20.6 nM |  |  | 
GUGGAACAUGAGGAUCACCCAUGUGAGGAUAUGUGUGAAUAGAGGAGAAGAAGAGAGAACAGAAGGCACGGAGG [JR_Exclu1_Sub066] (puzzle: Exclusion 1) |  |  | 73.4 nM | 53.3 nM | 93.3 nM | 
UCUCUGCGAGGAUAUACGUUUGCGCGCUUUCGUUUGCGCGUACAUGAGGAUCACCCAUGUAGAAGGCGCGUUUC [Apr-15 SS2-9] (puzzle: Exclusion 2) |  |  | 12.6 nM |  |  | 
UACAUGAGGAUCACCCAUGUUUUGUCGUGUAUGGUAUUUAUCUAGGAUAUCAAGUUAUUUAUUUAUGAGAAGGAGAAUAUUAAU [JMF's solution 10] (Eterna round: R96, puzzle: Exclusion NG 3) | 40 nM | 37.3 nM |  |  |  | 30.7 nM
GUAGAGUCAGGAUAUACGCGAUCGAAAGAUCGGUGGUCCUUACAUGAGGAUCACCCAUGUAGAAGGGACUCUAC [Omei mod 13 to Eli's favorate candidate (ch.parushev)] (Eterna round: R97, puzzle: Exclusion 2) | 65.9 nM | 580 nM |  |  |  | 
ACAAGCUUUUAGAUUUUCAACAUGAGGAUCACCCAUGUUCGUCUUAGGCUAGUGCGAGUGCGGUGUACUCGUAUUAG [JL TOV1 3.84 sellena mod] (Eterna round: R97, puzzle: Sensor, turn-off variant 1) | 18.2 nM | 16.4 nM |  |  |  | 
UGUCAGAUGGUAGGAUAUCCAUAUCGAGUGACCCUUUCAUAACAUGAGGAUCACCCAUGUUGGUGGGAGAAGGGCCGUAUGGUG [salish99_ExNG02_R04_026] (Eterna round: R96, puzzle: Exclusion NG 2) | 13.2 nM | 15.5 nM |  |  |  | 12.7 nM
ACAUGUGUUGUAGGAUAUAGGAUACAUGAGGAUCACCCAUGUGGAUUCAUGUCAAAGGAAACGUCCUAGAAGGACGACAACAUG [Ex NG2 #23] (Eterna round: R96, puzzle: Exclusion NG 2) | 176 nM | 84.3 nM |  |  |  | 53.2 nM
CUGGUCCGAGGAUAUAUUAAGUGAAACAUGAGGAUCACCCAUGUUAUUUAAUGGAAGUAAAUAGAAGGCGGACUAG [Mat - Exclusion 5 - JL mod - D54] (puzzle: Exclusion 5) |  |  | 48.8 nM | 38.7 nM | 43.5 nM | 
UAUUAGCUAGGAUAUACAUGAGGAUCACCCAUGUCACGGGUCCACUCAUCCUAUGCGUGUAGAAGGAGCGACCC [JL Ceriza mod 1] (puzzle: Exclusion 3) |  |  | 23.6 nM |  |  | 
AAAGGGUGAGGAUAUCCAUCUGGAUCAGACUAGAUCCUGAUGGAGAAGGCACAUGAGGAUCACCCAUGUGAGUU [Eli 4x 4.33] (Eterna round: R97, puzzle: Exclusion 4) | 112 nM | 99.2 nM |  |  |  | 
AAUAACAGAGGAUAUACUGUUUUAUGUGUUUAUUGUUUUAAACAUGAGGAUCACCCAUGUAGAAGGCUGAGUAA [JMF 32] (puzzle: Exclusion 2) |  |  | 33.5 nM |  |  | 
AGUUGGCGAGGAUAUACAUGAGGAUCACCCAUGUGAGAGAUACUGGUGAGGUCGAUUAGUAGAAGGCGCUGACA [Mat X3R4 m15] (Eterna round: R97, puzzle: Exclusion 3) | 137 nM | 654 nM |  |  |  | 
GAAAAGGUAGGAUAUGCGAAAAAAAAGGGUAGAAAAAAAACACAUGAGGAUCACCCAUGUAGAAGGACCAAAAG [salish99_ex2_r3_031] (puzzle: Exclusion 2) |  |  | 31.2 nM | 26.1 nM | 32 nM | 
CGGGACGUCCUGAUAAUAAGACAUGAGGAUCACCCAUGUCGGCAGGAUAUCAGUCCUUACGGUUUUGAGAAGGGUCGACAACCA [Birace] (Eterna round: R96, puzzle: Exclusion NG 3) | 14.1 nM | 13.4 nM |  |  |  | 8.27 nM
GAUCACUGAGGAUAUACACAGAUACAAAGUAUCUGAUGGUGACAUGAGGAUCACCCAUGUAGAAGGCAGAGGUC [Omei Ex2 B7] (Eterna round: R97, puzzle: Exclusion 2) | 290 nM | 495 nM |  |  |  | 
GCCUCACUUGAGGAUCACCCAAGUCAGGAUAUUCACUGAACUACGUAGCAGUUCGGCCGAAGAAGGGAUUCGGG [Azaraqu] (Eterna round: R97, puzzle: Exclusion 1) | 44.5 nM | 95.1 nM |  |  |  | 

Sequence | apparent KD of MS2 coat protein (input ligand: FMN 200 uM) | apparent KD of MS2 coat protein (input ligand: none) | apparent KD of MS2 coat protein [1] | apparent KD of MS2 coat protein [2] | apparent KD of MS2 coat protein [3] | apparent KD of MS2 coat protein [4]
UAUUACCUAGGAUAUACAUGAGGAUCACCCAUGUCACGGGUCAACUUGUCCUAUGCGUGUAGAAGGAGGGACCC [JL Ceriza mod 6] (Eterna round: R96, puzzle: Exclusion 3) | 25 nM | 25.4 nM |  |  |  | 16.5 nM
CCGAUAAUGUAGGAUAUCGUAUCGGAAACGAUACGAGAAGGGCAAACAUGAGGAUCACCCAUGUUCCUUAACGG [Mat - Exclusion 6 - Eli Mod - D72] (puzzle: Exclusion 6) |  |  | 15.8 nM |  |  | 
GAUCAUGCAGGAUAUACAGUAACCAUGAAAACAUGGAUCAAACAUGAGGAUCACCCAUGUAGAAGGGCAUGAUC [Omei Ex2 A22] (Eterna round: R97, puzzle: Exclusion 2) | 38.8 nM | 18.2 nM |  |  |  | 
AAUAAGUGAGGAUAUCCAAUAAUAAAUAAAAUAAUAAAUAAGGAGAAGGCACAUGAGGAUCACCCAUGUAAUAA [JMF's solution 2] (puzzle: Exclusion 4) |  |  | 14.8 nM | 19 nM | 15.7 nM | 
AGCGAGGAGACAGGAUAUGAGAAUAGAUAGAACUCAGAAGGGUCACAUGAGGAUCACCCAUGUAAAGUCUUGAGGCUGCGUGGU [Prohibition 8 - Jieux - Exclusion NG 1] (Eterna round: R96, puzzle: Exclusion NG 1) | 239 nM | 88.2 nM |  |  |  | 84.3 nM
UAUUUAUAUGAAGGAUAUACUUAACAUGAGGAUCACCCAUGUGGUGUUGUGAGUGAGUGAGUUUAGUAGAAGGUCAAUUCUUUU [JMF's solution 96] (Eterna round: R96, puzzle: Exclusion NG 2) | 893 nM | 448 nM |  |  |  | 415 nM
UAGGAGCAAGGAUAUACGAGGAUAUGGUAGUUUGUAGAGUGACAUGAGGAUCACCCAUGUAGAAGGUGCGUGUG [JR_Exclu2_Sub0100] (puzzle: Exclusion 2) |  |  | 82.9 nM |  |  | 
UUCAUGUGAGGAUAUUAGUAGUAAAUAAAUAAAAUUAUUACUGAGAAGGUACAUGAGGAUCACCCAUGUUCCUU [Salish 062 v22] (Eterna round: R97, puzzle: Exclusion 4) | 18.5 nM | 13.9 nM |  |  |  | 
ACACUUGAACAUGAGGAUCACCCAUGUGUUUUUCUGGUUCGGCAGGAUAUCGUCUAACGCCAGGGCGAGAAGGGCCAAUAAAAG [Inlale] (Eterna round: R96, puzzle: Exclusion NG 3) | 26 nM | 37 nM |  |  |  | 29.4 nM
ACUGGAGCAGGAUAUACAUAACGUGCUUCGGCACGAGAUCUACAUGAGGAUCACCCAUGUAGAAGGGCUCCAGU [E2/10-D1] (Eterna round: R97, puzzle: Exclusion 2) | 28.3 nM | 13.3 nM |  |  |  | 
GGGCAAUUAGGAUAUACAUGAGGAUCACCCAUGUGGAAGCCCGGACAGGUAAUCCACUGUAGAAGGGAUUGCCA [Anareor] (puzzle: Exclusion 3) |  |  | 10.7 nM |  |  | 
GAUUAUGCGAGCUUUAGGGACAUGAGGAUCACCCAUGUUCGUCUUAUUGAUCUGGAUGCACUAACAUACCUAAAUCU [JMF 27] (puzzle: Sensor v3, turn-off variant 1) |  |  | 64.6 nM | 51.1 nM | 49.3 nM | 
CCUGCACAUGAGGAUCACCCAUGUCAGGAUAUCUCGCCGCGAAGAGCAACACGGUAUUAGAGAAGGGACACGGG [Bimavees] (puzzle: Exclusion 1) |  |  | 24.5 nM |  |  | 
AUAAUCGUAGGAUAUCAUUAGCCCUACAUGAGGAUCACCCAUGUGGGCUGGUGAGGGCGGUGAGAAGGACGAGAGA [EX5 B.1] (Eterna round: R97, puzzle: Exclusion 5) | 25.1 nM | 18.4 nM |  |  |  | 
GCACGGAGUGUAGGAUAUCUGUGCGAUUAGCUCAGAGAAGGACACAUGAGGAUCACCCAUGUGUAACUCAAUACUCAUCCGUGC [Eli exng1 - 070] (Eterna round: R96, puzzle: Exclusion NG 1) | 8.06 nM | 13.9 nM |  |  |  | 9.18 nM
UCAAGUAUGUAGGAUAUCGAUGUCCUCGGACAUCGAGAAGGACGUACAUGAGGAUCACCCAUGUAACUUGCAUG [Exclusion 6 - B - 10:b] (puzzle: Exclusion 6) |  |  | 44.3 nM |  |  | 
GAAAAGUGAGGAUAUGGUAAAAGAAAAAGAAGAAGAAAACUCCAGAAGGCACAUGAGGAUCACCCAUGUGAAAG [salish99_ex4_r3_007] (puzzle: Exclusion 4) |  |  | 17.4 nM | 22.2 nM | 15.7 nM | 
UGGUGGAAGCAGGAUAUGCUUGUAUUAUUGAUUGCAGAAGGGCUAACAUGAGGAUCACCCAUGUAAGAGGUGUU [JR_E6_Sub056] (puzzle: Exclusion 6) |  |  | 289 nM | 303 nM | 327 nM | 
